Laboratory results from patent publication US20260167714A1 (COHERUS BIOSCIENCES, published 2026).

What was measured:
[1] = biological target: T1, recombinant human ILT4 (LILRB2) (human, UniProt Q8N423 22-460); assay: SPR, Biacore T200, mAb captured on anti-Fc, ILT4 injected, medium resolution, 25 C
T1 construct: Bought protein (Acro Biosystems or R&D Systems); also called ILTR4
Description: (§1) Label-free SPR analysis on a Biacore T200 instrument was utilized to measure antibody affinity to ILT4. CM4 sensor chips from Cytiva Inc. were utilized for all medium resolution analyses. Either anti-mouse Fc specific or anti-human Fc specific capture surfaces were prepared using standard amine coupling chemistry. Mouse, Chimera or Humanized mAbs were captured to their respective surfaces and ILT4 was injected across the surfaces from 101 nM to 0.79 nM in a 2-fold serial dilution series at a flow rate of 100 μL/min. The association phase was followed for 90 sec. while the dissociation phase was followed for 1200 sec. due to the medium resolution analysis implemented here. The sensorgrams were double-referenced and fit globally to a 1:1 interaction model with a term included for mass transport, and the equilibrium dissociation constant was calculated as KD=koff/kₒₙ. […] All kinetic experiments were performed at 25° C. in a buffer consisting of Hepes-buffered saline, pH 7.4, with 0.05% polysorbate 20 (HBS-P+) and 100 μg/ml Bovine Serum Albumin (BSA).

[2] = biological target: T1, recombinant human ILT4 (LILRB2); assay: SPR, Biacore T200, medium resolution; koff held at its limit of 4.27e-5 s^-1
Description: as §1

[3] = biological target: T2, human ILT4 expressed on cells (human, UniProt Q8N423 22-597); assay: flow cytometry blocking assay: ILT4-expressing CHO cells preincubated with antibody, then PE-HLA-G; HLA-G binding MFI falls from about 105000 (no antibody) to near 0
T2 construct: whole, on cells; also called CHO-S/ILT4 cells; ILT4-CHO cells
Description: (§2) In the second blocking experiment, the primary antibody dilutions were made by diluting antibody to 15 μg/ml in FACS buffer. Three independent sets of eleven 2.5-fold serial dilutions were then made in FACS buffer from 15 μg/ml to 0.002 μg/ml. Each dilution set was handled independently, and 50 μl from each was added to cells in duplicate. Control wells received FACS buffer with no antibody. Wells were mixed and incubated for 30 minutes at 4 degrees C. Cells were washed twice in FACS buffer.
(§3) In both blocking experiments, phycoerythrin (PE)-conjugated HLA-G tetramer was diluted in FACS buffer to 5 μg/ml and 100 μl per well was added to cells. Cells were incubated at 4 degrees C. for 30 minutes, washed twice in FACS buffer, and resuspended in 250 μl FACS buffer with 0.1 μg/ml propidium iodide.
(§4) Cells were acquired on an Attune flow cytometer, with 5000 propidium iodide-negative cells collected per sample, and MFI was recorded. Relative blocking activity was calculated with the following formula: 100−(Sample MFI−Background MFI)/(Top MFI−Background MFI)*100. Prism software (Graphpad) was used to plot MFI and relative blocking activity for each sample. The blocking potency for each antibody, represented as IC₅₀, was calculated with Prism software.

[4] = biological target: T2, human ILT4 expressed on cells; assay: flow cytometry, blockade of PE-HLA-G tetramer (5 µg/ml) binding to CHO-S/ILT4 cells, experiment 2
Description: as §2, §3, §4

[5] = biological target: T2, human ILT4 expressed on cells; assay: cell-based or functional assay

T1 sequence (Q8N423 other isoform, or with tags, fused parts or gaps limits assumed): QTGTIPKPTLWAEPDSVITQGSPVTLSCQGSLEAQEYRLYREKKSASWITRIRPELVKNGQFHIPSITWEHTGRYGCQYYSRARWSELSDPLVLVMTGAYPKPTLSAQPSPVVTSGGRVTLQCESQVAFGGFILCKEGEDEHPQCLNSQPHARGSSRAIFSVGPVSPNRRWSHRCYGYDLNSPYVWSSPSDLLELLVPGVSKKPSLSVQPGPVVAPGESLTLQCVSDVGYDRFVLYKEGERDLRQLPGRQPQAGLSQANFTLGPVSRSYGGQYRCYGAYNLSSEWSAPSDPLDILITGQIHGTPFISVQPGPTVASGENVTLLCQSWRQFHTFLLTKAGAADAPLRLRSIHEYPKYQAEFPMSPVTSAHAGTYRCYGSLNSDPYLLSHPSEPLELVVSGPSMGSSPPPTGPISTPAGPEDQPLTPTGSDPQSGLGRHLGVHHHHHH
T2 sequence (Q8N423 22-597): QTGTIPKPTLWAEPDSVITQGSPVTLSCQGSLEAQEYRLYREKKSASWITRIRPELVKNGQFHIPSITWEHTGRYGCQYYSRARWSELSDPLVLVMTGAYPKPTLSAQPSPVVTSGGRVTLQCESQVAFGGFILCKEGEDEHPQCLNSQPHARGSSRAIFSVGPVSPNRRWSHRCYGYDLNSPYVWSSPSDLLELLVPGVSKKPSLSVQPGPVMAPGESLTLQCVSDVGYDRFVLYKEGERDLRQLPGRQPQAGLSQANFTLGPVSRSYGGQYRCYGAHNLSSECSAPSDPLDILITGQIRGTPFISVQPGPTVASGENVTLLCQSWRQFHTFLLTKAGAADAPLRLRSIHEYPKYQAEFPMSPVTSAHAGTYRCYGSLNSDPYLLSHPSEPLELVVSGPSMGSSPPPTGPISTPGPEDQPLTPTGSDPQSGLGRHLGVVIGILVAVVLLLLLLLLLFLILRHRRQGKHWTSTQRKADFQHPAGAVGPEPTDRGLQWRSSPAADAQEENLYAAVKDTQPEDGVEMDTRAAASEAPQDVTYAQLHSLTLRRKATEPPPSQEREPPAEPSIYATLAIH

Binder | Kd [1] [nM] | koff [1] [s⁻¹] | kon [1] [M⁻¹ s⁻¹] | Kd [2] [nM] | koff [2] [s⁻¹] | IC50 [3] [µg/mL] | IC50 [4] [µg/mL] | IL-6 secretion by LPS-stimulated M2 macrophages (MSD), fold over control [5] [fold]
Chimeric 45 (antibody, V domains shown, Chimeric form of L45S4, captured on anti-human Fc) VH: EVQLQQSGPELVKPGASVKISCKASGYTFTDYYMNWVKQSHGKSLEWIGDINPNNGGTSYNQKFKGKATLTVDKSSSTAYMELRSLTSEDSAVYYCARGGAELTGTYWYFDVWGTGTTVTVSS VL: DIQMTQSPASLSISVGETVTITCRASENIYSNLAWYQQKQGKSPQVLVYGATNLADGVPSRFSGSGSGTQYSLKIKSLQSEDFGSYYCQHFWDSPFTFGSGTKLEIK | 0.223 | 0.000109 | 489000 | – | – | – | – | –
L77S2 (antibody, IgG1, V domains shown, also called Murine 77; mouse anti-human ILT4 antibody L77S2) VH: DVQLQQSGPELVKPGNSVKISCKAAGYSFTGYSVNWVKERHGKSLEWIGRINPYNGDIFNNQKFKGKATLTVDKSSSTAHMELRSLTSEDSAVYYCARGTTVGGAWFAYWGQGTLVTVSA VL: VIVLTQSPASLAVSLGQRAAISCRASESVDSYGYSFLHWYQQKPGQPPKLLIYLASNLESGIPARFSGSGSGTDFTLTINPVEADDVATYYCQQSNEDLMYTFGGGTKLEIK | – | – | 387000 | ≤ 0.111 | ≤ 4.27e-05 | 0.076 | 0.103 | 2
Chimeric 77 (antibody, V domains shown, Chimeric form of L77S2) VH: DVQLQQSGPELVKPGNSVKISCKAAGYSFTGYSVNWVKERHGKSLEWIGRINPYNGDIFNNQKFKGKATLTVDKSSSTAHMELRSLTSEDSAVYYCARGTTVGGAWFAYWGQGTLVTVSA VL: VIVLTQSPASLAVSLGQRAAISCRASESVDSYGYSFLHWYQQKPGQPPKLLIYLASNLESGIPARFSGSGSGTDFTLTINPVEADDVATYYCQQSNEDLMYTFGGGTKLEIK | – | – | 728000 | ≤ 0.059 | ≤ 4.27e-05 | – | – | –
Chimeric 156 (antibody, V domains shown, Chimeric form of L156S3) VH: QVQLKQSGAELVRPGASVKLSCRASGYTFTDYYMNWVKQRPGQGLEWIARIYPGVYRTHYNEKFKDKATLTAEKSSSTAYMELSSLTSEDSAVYFCARSGYYGGTYEEDAMDYWGQGTSVTVSS VL: DIQMTQSPASLSVSVGETVTITCRASENIYSNLAWYQQKQGKSPQLLVYAATSLADGVPSRFRGSGSGTQYSLKISSLQSEDFGNYYCQNFWDTPYTFGGGTKLEIK | – | – | 373000 | ≤ 0.114 | ≤ 4.27e-05 | – | – | –
L180S4 (antibody, IgG1, V domains shown, also called Murine 180; mouse anti-human ILT4 antibody L180S4) VH: EVHLQQSGPELVKPGASVKISCKASGYSFIGYFMNWMKQSHGKSLEWIGRINPYNGDIFYNQKFKGKATLTVDKSSTTAHMDLLSLTSEDFAVYYCARGITVAAGSFDVWGTGTTVTVSS VL: DIVLTQSPASLAVSLGQRATISCRASESVDNYGNTFMHWYQQKPGQPPKLLIYRASNLESGIPARFSGSGSKTDFTLTINPVEADDVATYYCQQSSDHPLTFGAGTKLELS | – | – | 431000 | ≤ 0.099 | ≤ 4.27e-05 | 0.064 | 0.095 | 2
Chimeric 180 (antibody, V domains shown, Chimeric form of L180S4) VH: EVHLQQSGPELVKPGASVKISCKASGYSFIGYFMNWMKQSHGKSLEWIGRINPYNGDIFYNQKFKGKATLTVDKSSTTAHMDLLSLTSEDFAVYYCARGITVAAGSFDVWGTGTTVTVSS VL: DIVLTQSPASLAVSLGQRATISCRASESVDNYGNTFMHWYQQKPGQPPKLLIYRASNLESGIPARFSGSGSKTDFTLTINPVEADDVATYYCQQSSDHPLTFGAGTKLELS | – | – | 874000 | ≤ 0.049 | ≤ 4.27e-05 | – | – | –
